Here are results for one substance from patent CN101875694A.

This assay deals with 重组人肿瘤坏死因子TNFα (Recombinant Human TNF-α, Peprotech Asia, Cat 300-01A) (human) (UniProt P01375). The experiment in a line: cell-based or functional assay.
Sequence of UniProt P01375 (P01375 77-233 limits assumed): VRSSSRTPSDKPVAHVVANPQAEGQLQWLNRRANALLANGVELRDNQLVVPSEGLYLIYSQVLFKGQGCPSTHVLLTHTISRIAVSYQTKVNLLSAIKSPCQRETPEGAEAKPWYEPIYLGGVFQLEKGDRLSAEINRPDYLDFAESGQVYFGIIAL

For the substance “野生型全长的D2E7抗体 (full-length wild-type D2E7) (antibody)”, the 小鼠存活率, C57BL/6 given 1μg rhTNFα and D-galactosamine, 5μg antibody is 0%.
